Assay results from patent US20130287795A1 (FUNDACION CENTRO NACIONAL DE INVESTIGACIONES ONCOLOGICAS, published 2013).

T1: recombinant mouse ephrin B1-Fc (R & D) (mouse, UniProt P52795 30-229)
T1 construct: Bought protein (R & D); also called EB1; not shown: Fc part of the bought fusion protein is not described
T1 sequence (looked up): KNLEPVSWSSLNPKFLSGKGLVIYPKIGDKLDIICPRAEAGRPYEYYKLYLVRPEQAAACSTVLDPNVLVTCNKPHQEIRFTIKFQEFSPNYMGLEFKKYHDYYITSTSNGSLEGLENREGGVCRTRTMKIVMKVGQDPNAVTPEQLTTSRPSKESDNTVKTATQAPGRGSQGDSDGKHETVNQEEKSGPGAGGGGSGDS

T2: recombinant human ephrin B3-Fc (R & D) (human, UniProt Q15768 28-224)
T2 construct: Bought protein (R & D); also called EB3; not shown: Fc part of the bought fusion protein is not described
T2 sequence (looked up): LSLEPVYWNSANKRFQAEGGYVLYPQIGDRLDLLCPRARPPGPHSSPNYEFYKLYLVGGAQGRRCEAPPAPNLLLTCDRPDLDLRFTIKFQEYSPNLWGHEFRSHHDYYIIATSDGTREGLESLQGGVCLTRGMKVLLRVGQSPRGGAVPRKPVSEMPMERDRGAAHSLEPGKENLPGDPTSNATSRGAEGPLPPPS


Tests used:
[1] = molecular target: T3, ephrin B2-Fc (extracellular region of ephrin B2 fused to the Fc domain of human IgG, expressed in mammalian … (human)); assay: SPR (Biacore X), ephrin B2-Fc immobilised on CM5 chip, scFv at 30, 20, 10 and 7.5 uM, Langmuir 1:1 model
T3 construct: extracellular domain; Antigen used for panning, ELISA and Biacore; also called extracellular region of the ephrin B2
T3 sequence (P52799 whole entry, the tested form may be a part): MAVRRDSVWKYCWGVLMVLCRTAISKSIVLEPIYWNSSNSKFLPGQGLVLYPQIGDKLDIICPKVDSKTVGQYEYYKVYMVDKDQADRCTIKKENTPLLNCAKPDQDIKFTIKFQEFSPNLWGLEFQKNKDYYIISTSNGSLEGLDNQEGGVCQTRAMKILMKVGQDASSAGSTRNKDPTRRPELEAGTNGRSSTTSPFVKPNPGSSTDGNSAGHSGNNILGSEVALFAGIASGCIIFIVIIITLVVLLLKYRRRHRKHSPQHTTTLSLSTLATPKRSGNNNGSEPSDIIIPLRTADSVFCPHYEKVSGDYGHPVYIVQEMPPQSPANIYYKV
Protocol: (§1) The two selected scFv, B11 and 2B1, were characterized using various techniques. First we determined the antibodies affinity constants to the ephrin B2 by means of surface plasmon resonance technique on a Biacore X, with the extracellular region of the immobilized ephrin B2 and different dilutions of purified scFv. […] Then, it was analyzed, using the same technique, the capacity of the antibodies to compete for the binding of ephrin B2 to its natural receptor Eph B4. To this end, Eph B4-Fc was immobilized on a chip and the binding to ephrin B2 was measured in the presence of different concentrations of B11 or 2B1. […] However, the 2B1 antibody has no blocking effect (FIG. 5).
(§2) To study the affinity constants of the scFv was used the technique of surface plasmon resonance with the BIAcore X equipment (BIAcore). The ephrin B2-Fc was covalently bound to CM5 chip surface (GE Healthcare) upon activation of the carboxyl groups of the dextran matrix of the chip with 0.4 M EDC (1-ethyl-3-(-dimethylaminopropyl)-carbodiimide) and 0.1 M NHS(N-hydroxysuccinimide) in a 1:1 ratio for 7 minutes at a flow rate of 10 μl/minute. The ephrin B2-Fc protein was diluted to 10 μg/ml in 10 mM sodium acetate at pH 4 and 30 μl of this solution was passed over the chip surface at a flow rate of 10 μl/min in HBS-EP buffer (10 mM HEPES pH 7.4, 150 mM NaCl, 3 mM EDTA, 0.005% surfactant P20) (GE Healthcare). […]

[2] = molecular target: T1, recombinant mouse ephrin B1-Fc (R & D); assay: immunoblot; periplasmic fraction of the scFv, detected with anti c-Myc and anti-mouse peroxidase conjugate
Protocol: (§3) Recombinant mouse proteins ephrin B1-Fc, mouse ephrin B2-Fc and human ephrin B3-Fc (R & D) were separated electrophoretically in polyacrylamide-SDS 10% gels and transferred onto nitrocellulose membrane (GE Healthcare). After blocking the membrane with PBS-3% skimmed milk powder for 1 hour, it was incubated with 1:5 diluted periplasmic fraction in PBS-3% powdered milk for 16 hours at 4° C. The secondary antibodies used were anti c-Myc (Sigma) at a 1:1000 dilution for 2 hours at room temperature and anti-mouse peroxidase conjugate (Sigma) diluted 1:5000 for 1 hour at room temperature. Visualization was performed by incubation with ECL reagent (ECL, “Enhanced Chemiluminescence”) (GE Healthcare).

[3] = molecular target: T2, recombinant human ephrin B3-Fc (R & D); assay: as above
Protocol: as §3

[4] = molecular target: T3, ephrin B2-Fc (extracellular region of …); assay: SPR (Biacore X), ephrin B2-Fc immobilised on CM5 chip, scFv at 0.4, 0.2, 0.1, 0.05 uM, Langmuir 1:1 model
Protocol: as §1, §2

[5] = molecular target: T3, ephrin B2-Fc (extracellular region of …); assay: SPR competition: serial dilutions of scFv mixed with 0.2 uM ephrin B2-Fc, injected over immobilised Eph B4
Protocol: A. Graph showing the percent of binding of ephrin B2 to Eph B4. Binding inhibition tests of ephrin B2 to Eph B4 in the presence of scFv anti-ephrin B2 by surface plasmon resonance. Serial dilutions of scFv B11 (•) or 2B1 (∘) were mixed with ephrin B2 and injected over Eph B4 immobilized on a chip. The relative amount of ephrin B2 bound to Eph B4 was measured immediately after injection of each sample and plotted as a function of the concentration of scFv. […] B. The scFv B11 is capable of blocking the interaction between ephrin B2 and Eph B4 receptor in a cellular assay. Analysis of tyrosines phosphorylation of the Eph B4 receptor in HUVEC cells in response to stimulation with ephrin B2 overexpressed on the surface of HEK293 cells. HUVEC and HEK293 cells overexpressing ephrin B2 were cocultured for 20 minutes in the presence or absence of anti-ephrin B2 scFv. After Eph B4 receptor immunoprecipitation, it was analyzed the total amount of this protein (lower panel) and its level of phosphorylation (upper panel) by immunoblot.
The ability of scFv to inhibit the binding of ephrin B2 to its EphB4 receptor was analyzed by surface plasmon resonance competitive binding assay. Soluble Eph B4 (R&D) was conjugated to a CM5 chip (GE Healthcare) using the same protocol described above. […]

Kd [1]	binding result [2]	binding result [3]	Kd [4]	IC50 [5]	Binder
630 nM	no binding	no binding	–	–	scFv 2B1 (human anti-ephrin B2 single chain variable fragment) (scFv, Expressed from pET28b in the E. coli periplasm with a histidine tail; also called clone 2B1; 2B1 antibody) scFv: QVQLVQSGGGLVQPGRSLRLSCAASGFTFDDYAMHWVRQAPGKGLEWVSGISWNSGSIGYADSVKGRFTISRDNAKNSLYLQMNSLRAEDTALYYCARGHRTSDAFDIWGQGTMVTVSSGGGGSGGGGSGGGGSQPVLTQPPSVSLAPGKTARITCGGDSIGLKSVHWYQQKPGQAPVLVMSSDSDRPSGIPDRFSGSNSGNTATLTITRVEAGDEADYYCQVWDSSSDHMVFGGGTKLTVLGQPKAAPSAAALEDYKDDDDKHHHHHH
–	no binding	no binding	110 nM	300 nM	scFv B11 (human anti-ephrin B2 single chain variable fragment) (scFv, Expressed from pET28b in the E. coli periplasm with c-myc and a histidine tail; also called clone B11; B11 antibody) scFv: QVQLVQSGAEVKKPGASVRLSCEASGYTFTDYYIHWVRQAPGQGLEWMGWMNPSSGNTGYAQKFQGRVTMTRNTSISTAYMELSSLRSEDTAVYYCARDITGTATGFDYWGQGTLVTVSSGGGGSGGGGSGGGGSEIVLTQSPLSLPVTLGQPASISCRSSQSLLHSNGYNYLDWYLQKPGQSPQLLIYLGSNRASGVPDRFSGSGSGTDFTLKISRVEAEDVGVYYCMQGLLSPVTFGQGTRLDIKRTVAAPTAAAEQKLISEEDLNGAALEHHHHHH
